Legend:
[1] = target: IIIB gp120 envelope protein (HIV-1 IIIB) (UniProt P03375); test: ELISA, inhibition of gp120 binding to solid-phase sCD4
[2] = target: HIV-1 gp120 (strain not stated at these places) (HIV-1); test: competition ELISA on immobilized gp120, competitor labeled HJ16

For b12 (antibody), the IC50 [1] was 1.16 mg/L and the plateau of inhibition [2] was 80%.

— US20110212106A1, “HIV-1 NE[…] USES THEREOF” (priority 2010, published 2011)
